# B1: S5A10h1cross+S5B8h2 (bispecific antibody, human IgG1, kappa)
# heavy 1: QVQLVQSGAEVKKPGASVKVSCKASGYAFTNSWMHWVRQAPGQGLEWMGEIHPQSGRTNYNEKFKGRVTMTRDTSTSTVYMELSSLRSEDTAVYYCARDLLQFGNQYYYAMDYWGQGTLVTVSSASTKGPSVFPLAPSSKSTSEGTAALGCLVKDYFPEPVTVSWNSGALTSGVHTFPAVLQSSGLYSLSSVVTVPSSSLGTQTYICNVDHKPSNTKVDKTVEPKSCDKTHTCPPCPAPELLGGPSVFLFPPKPKDTLMISRTPEVTCVVVDVSQEDPEVQFNWYVDGVEVHNAKTKPREEQYNSTYRVVSVLTVLHQDWLNGKEYKCKVSNKALPAPIEKTISKAKGQPREPQVCTLPPSQEEMTKNQVSLSCAVKGFYPSDIAVEWESNGQPENNYKTTPPVLDSDGSFFLVSKLTVDKSRWQEGNVFSCSVMHEALHNHYTQKSLSLSPGK
# light 1: DIVMTQTPLSLPVTPGEPASISCRSSQSLVHSNGNTYLHWYLQKPGQSPQLLIYKVSNRFSGVPDRFSGSGSGTDFTLKISRVEAEDVGVYYCSQSTHVPLTFGQGTKLEIKRTVAAPSVFIFPPSDEQLKSGTASVVCLLNNFYPREAKVQWKVDNALQSGNSQESVTEQDSKDSTYSLSSTLTLSKADYEKHKVYACEVTHQGLSSPVTKSFNRGEC
# heavy 2: not shown
# light 2: DIQMTQSPSSLSASVGDRVTITCRASENIYSYLAWYQQKPGKAPKLLIYNAKTLAEGVPSRFSGSGSGTDFTLTISSLQPEDFATYYCQHHYGTPYTFGQGTKLEIKSSASTKGPSVFPLAPSSKSTSGGTAALGCLVKDYFPEPVTVSWNSGALTSGVHTFPAVLQSSGLYSLSSVVTVPSSSLGTQTYICNVNHKPSNTKVDKRVEPKSC
# notes: Knob-into-hole plus CrossMab format, four chains
# B2: S5A10h1Fab+S5B8h2ScFv (bispecific antibody, human IgG1, kappa)
# chain: DIVMTQTPLSLPVTPGEPASISCRSSQSLVHSNGNTYLHWYLQKPGQSPQLLIYKVSNRFSGVPDRFSGSGSGTDFTLKISRVEAEDVGVYYCSQSTHVPLTFGQGTKLEIKGGGGSGGGGSGGGGSQVQLVQSGAEVKKPGASVKVSCKASGYAFTNSWMHWVRQAPGQGLEWMGEIHPQSGRTNYNEKFKGRVTMTRDTSTSTVYMELSSLRSEDTAVYYCARDLLQFGNQYYYAMDYWGQGTLVTVSSEPKSSDKTHTCPPCPAPELLGGPSVFLFPPKPKDTLMISRTPEVTCVVVDVSQEDPEVQFNWYVDGVEVHNAKTKPREEQYNSTYRVVSVLTVLHQDWLNGKEYKCKVSNKALPAPIEKTISKAKGQPREPQVCTLPPSQEEMTKNQVSLSCAVKGFYPSDIAVEWESNGQPENNYKTTPPVLDSDGSFFLVSKLTVDKSRWQEGNVFSCSVMHEALHNHYTQKSLSLSPGK
# heavy: not shown
# light: DIQMTQSPSSLSASVGDRVTITCRASENIYSYLAWYQQKPGKAPKLLIYNAKTLAEGVPSRFSGSGSGTDFTLTISSLQPEDFATYYCQHHYGTPYTFGQGTKLEIKRTVAAPSVFIFPPSDEQLKSGTASVVCLLNNFYPREAKVQWKVDNALQSGNSQESVTEQDSKDSTYSLSSTLTLSKADYEKHKVYACEVTHQGLSSPVTKSFNRGEC
# notes: Fab-FcK/scFv-FcH knob-into-hole format, three chains
# B3: S5B8h2 (antibody, IgG1, V domains shown)
# VH: QVQLVQSGAEVKKPGASVKVSCKASGYAFTNSWMHWVRQAPGQGLEWMGEIHPQSGRTNYNEKFKGRVTMTRDTSTSTVYMELSSLRSEDTAVYYCARDLLQFGNQYYYAMDYWGQGTLVTVSS
# VL: DIVMTQTPLSLPVTPGEPASISCRSSQSLVHSNGNTYLHWYLQKPGQSPQLLIYKVSNRFSGVPDRFSGSGSGTDFTLKISRVEAEDVGVYYCSQSTHVPLTFGQGTKLEIK
# notes: Made as a whole antibody of the IgG1 subtype; only variable domains are tied to it; also called 单克隆抗体S5B8h2
# B4: S5A10h1 (antibody, V domains shown)
# VH: QVQLVQSGAEVKKPGSSVKVSCKASDYPFISYTIHWVRQAPGQGLEWMGYINPSNGYTNYNQKFKDRVTITADKSTSTAYMELSSLRSEDTAVYYCARKYGNFYAMDYWGQGTLVTVSS
# VL: DIQMTQSPSSLSASVGDRVTITCRASENIYSYLAWYQQKPGKAPKLLIYNAKTLAEGVPSRFSGSGSGTDFTLTISSLQPEDFATYYCQHHYGTPYTFGQGTKLEIK
# notes: Made as a whole antibody of the IgG1 subtype; only variable domains are tied to it; also called 单克隆抗体S5A10h1
# Molecular target: T1, 食蟹猴CD38胞外区-His (mfCD38-His) (cynomolgus monkey (Macaca fascicularis), UniProt Q5VAN0 44-301)
# T1 construct: Recombinant, expressed in HEK293 cells; not shown: His tag at the C-terminus
# Test: ELISA, mfCD38-His coated at 1.5 μg/ml, HRP mouse anti-human IgG
row,Binder,binding result
1,B1,binds
2,B2,binds
3,B3,binds

# Molecular target: T2, 人CD38胞外区-His (hCD38-His) (human (homo sapiens), UniProt P28907 43-300)
# T2 construct: Recombinant, expressed in HEK293 cells; also called 人CD38-His; not shown: His tag at the C-terminus
# Test: SPR (Biacore X100), antibody captured by anti-human Fc, human CD38-His as analyte, 25°C
row,Binder,Kd [pM]
1,B1,21.6
2,B4,1340
3,B2,151
4,B3,21.3

# From patent CN116143933A (BEIJING ZHIREN MEIBO BIOTECHNOLOGY CO LTD, dated 2023)
